How the values were obtained:
Test in all cases: competitive binding assay (PROMEGA-GLO 2)
caspase-2 = target: T1, caspase-2 (UniProt P42575 170-325; P42575 334-452, limits assumed)
T1 construct: also called recombinant caspase-2
T1 sequence (looked up) 1: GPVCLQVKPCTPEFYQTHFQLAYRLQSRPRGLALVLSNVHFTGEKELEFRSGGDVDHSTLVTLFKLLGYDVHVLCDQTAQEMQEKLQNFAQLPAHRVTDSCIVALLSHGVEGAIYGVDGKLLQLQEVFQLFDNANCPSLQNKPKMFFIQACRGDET
T1 sequence (looked up) 2: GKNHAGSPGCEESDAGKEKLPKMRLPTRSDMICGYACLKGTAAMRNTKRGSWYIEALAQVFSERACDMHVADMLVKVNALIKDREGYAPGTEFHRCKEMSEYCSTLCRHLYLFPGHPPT

caspase-6 = target: T2, caspase-6 (UniProt P55212 24-179; P55212 194-293, limits assumed)
T2 sequence (looked up) 1: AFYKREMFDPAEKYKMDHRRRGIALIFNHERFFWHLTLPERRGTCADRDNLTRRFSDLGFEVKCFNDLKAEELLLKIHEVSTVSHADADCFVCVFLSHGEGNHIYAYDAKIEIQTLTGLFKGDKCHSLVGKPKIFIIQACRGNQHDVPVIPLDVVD
T2 sequence (looked up) 2: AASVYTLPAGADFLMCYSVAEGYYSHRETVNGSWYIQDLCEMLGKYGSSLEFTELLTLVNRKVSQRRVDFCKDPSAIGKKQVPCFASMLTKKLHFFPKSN

caspase-3 = target: T3, caspase-3 (UniProt P42574 29-277, limits assumed)
T3 sequence (looked up): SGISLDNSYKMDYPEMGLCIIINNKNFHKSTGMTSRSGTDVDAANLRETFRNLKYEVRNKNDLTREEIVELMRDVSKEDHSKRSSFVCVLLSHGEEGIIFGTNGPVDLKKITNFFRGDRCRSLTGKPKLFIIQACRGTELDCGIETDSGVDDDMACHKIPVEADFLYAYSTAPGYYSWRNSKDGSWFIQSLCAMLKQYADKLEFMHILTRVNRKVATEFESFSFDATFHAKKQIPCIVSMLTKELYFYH

B1: Ac-YKPVD-CHO (SEQ ID NO: 1) (peptide)
peptide: Ac-YKPVD-aldehyde
SMILES: CC(=O)N[C@@H](Cc1ccc(O)cc1)C(=O)N[C@@H](CCCCN)C(=O)N1CCC[C@H]1C(=O)N[C@H](C(=O)N[C@H](C=O)CC(=O)O)C(C)C
notes: Designed to mimic the caspase-2 cleavage site of tau; also called parent pentapeptide; Tyr-Lys-Pro-Val-Asp
caspase-2
  Ki: 0.2 µM
caspase-6
  Ki: 184 µM
caspase-3
  Ki: 19.8 µM
